Experimental data from patent US20200157236A1 (CELLDEX THERAPEUTICS, published 2020).

These binders were tested against T1, human ALK on the surface of NB1 cells (human, UniProt Q9UM73 21-1620) (assay: flow cytometry titration on NB1 cells, steady state).
T1 construct: ALK of NB1 cells; also called cell surface hALK; NB1 (human)
Protocol: KD was determined by flow cytometry. Titration of each antibody on NB1 cells for 2-4 hours at 4° C. was followed by incubation with a fluorescently-labeled secondary antibody. The normalized mean fluorescent intensity […] shown as “% Max binding” was plotted as a function of antibody concentration.
Flow cytometry was utilized to measure the affinity at steady state (KD) with which different ALK antibodies bind to ALK on the surface of NB1 cells (FIG. 3). Titration of each antibody on NB1 cells for 2-4 hours at 4° C. was followed by incubation with a fluorescently-labeled secondary antibody. The normalized mean fluorescent intensity (MFI) shown as “% Max binding” was plotted as a function of antibody concentration. The data were fit to a one site binding isotherm using GraphPad Prism, from which affinity values were derived.

T1 sequence (Q9UM73 21-1620): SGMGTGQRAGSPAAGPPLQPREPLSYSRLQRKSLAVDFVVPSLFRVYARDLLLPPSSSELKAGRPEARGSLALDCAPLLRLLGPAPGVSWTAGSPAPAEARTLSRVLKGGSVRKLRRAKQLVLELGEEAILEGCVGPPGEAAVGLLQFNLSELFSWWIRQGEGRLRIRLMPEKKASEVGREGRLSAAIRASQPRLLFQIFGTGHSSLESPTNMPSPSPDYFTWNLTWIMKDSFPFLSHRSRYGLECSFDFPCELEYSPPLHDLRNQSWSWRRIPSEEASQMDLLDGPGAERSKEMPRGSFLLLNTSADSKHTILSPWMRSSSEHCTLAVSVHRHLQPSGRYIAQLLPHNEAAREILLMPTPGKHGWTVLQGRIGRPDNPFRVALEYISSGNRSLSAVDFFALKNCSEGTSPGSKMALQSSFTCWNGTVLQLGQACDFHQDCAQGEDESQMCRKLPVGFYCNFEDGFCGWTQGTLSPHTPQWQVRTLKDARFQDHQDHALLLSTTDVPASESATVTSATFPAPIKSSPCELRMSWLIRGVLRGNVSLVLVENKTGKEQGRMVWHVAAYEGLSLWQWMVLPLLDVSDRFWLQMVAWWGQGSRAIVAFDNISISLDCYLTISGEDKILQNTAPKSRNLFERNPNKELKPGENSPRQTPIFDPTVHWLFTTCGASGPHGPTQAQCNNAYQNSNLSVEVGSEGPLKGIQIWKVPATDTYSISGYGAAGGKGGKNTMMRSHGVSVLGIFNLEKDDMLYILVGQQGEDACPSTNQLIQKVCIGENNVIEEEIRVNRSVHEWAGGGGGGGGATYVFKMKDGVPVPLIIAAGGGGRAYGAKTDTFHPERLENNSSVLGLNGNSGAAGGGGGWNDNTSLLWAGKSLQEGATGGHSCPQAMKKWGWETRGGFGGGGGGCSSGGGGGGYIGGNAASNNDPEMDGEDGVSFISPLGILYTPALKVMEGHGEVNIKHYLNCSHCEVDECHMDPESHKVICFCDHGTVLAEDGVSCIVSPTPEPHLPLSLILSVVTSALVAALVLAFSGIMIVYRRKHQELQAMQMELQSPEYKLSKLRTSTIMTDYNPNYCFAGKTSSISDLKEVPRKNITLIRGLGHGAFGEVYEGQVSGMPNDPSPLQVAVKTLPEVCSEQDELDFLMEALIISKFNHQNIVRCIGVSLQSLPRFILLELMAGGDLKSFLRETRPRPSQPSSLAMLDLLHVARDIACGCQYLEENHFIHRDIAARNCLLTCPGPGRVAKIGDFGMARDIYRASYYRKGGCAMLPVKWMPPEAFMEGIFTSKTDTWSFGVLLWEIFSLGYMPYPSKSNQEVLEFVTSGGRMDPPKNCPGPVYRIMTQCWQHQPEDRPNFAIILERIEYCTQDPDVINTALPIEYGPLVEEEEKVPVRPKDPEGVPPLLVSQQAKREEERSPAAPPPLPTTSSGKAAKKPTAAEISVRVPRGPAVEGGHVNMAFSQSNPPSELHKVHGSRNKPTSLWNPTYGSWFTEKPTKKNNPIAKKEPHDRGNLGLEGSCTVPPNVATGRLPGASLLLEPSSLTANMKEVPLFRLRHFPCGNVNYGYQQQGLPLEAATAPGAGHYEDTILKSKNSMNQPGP

Kd [nM]	Binder
0.35	Ab320 (antibody, V domains shown, rodent hybridoma mAb) VH: QVQLQQSGAELVKPGASVKISCKASGYAFSSYWMNWVKQRPGKGLEWIGQIYPGDGDTNYNGKFKGKATLTADKSSSTAYMQLSSLTSEDSAVYFCASYYYGSKAYWGQGTLVTVSA VL: DIQMTQSPASLAASVGETVTITCRASENIYYSLAWYQQKQGKSPQLLIYNANSLEDGVPSRFSGSGSGTQYSMKINSMQPEDTATYFCKQAYDVPFTFGSGTKLEIKR
0.34	Ab329 (antibody, V domains shown, rodent hybridoma mAb) VH: QVQLKESGPGLVKPSATLSLTCTVSGFSLTSYHVCWIRQTPGKGLEWMGVIWGDGRTTYNPPLKSRLSISRDTSKSQVFLKMSSLKTEDTATYYCARATMTGHGDAWGQGASVTVSS VL: DIQMTQSPASLSASLEEIVTITCQASQDIDNYLSWYQQKPGKSPHLLIHSATSLADGVPSRFSGGRSGTQFSLKINRLQVEDTGIYYCLQHYSGWTFGGGTKLELKR
0.08	Ab323 (antibody, V domains shown, rodent hybridoma mAb) VH: QVQLQQSGAELVKPGASVKISCKTSGYTFSNYWMNWVKQRPGKGLEWIGQIFPGDADANYNGKFKGKATLTADKSSSAAFMQLSSLTSEDSAVYFCARFSYDGAFAYWGQGTLVTVS VL: DIVMTQSHKFMSTSVGDRVSITCKASQDVSTAVAWYQQKPGQSPKPLIYWASTRHTGVPDRFTGSGSGTDYTLTISSVQTEDLALYYCQQHYSTPRTFGGGTKLEIKR

Further lines, the binder ahead of its results:

Binder	Kd [nM]
Ab325 (antibody, V domains shown, rodent hybridoma mAb) VH: QVQLQQSGAELVKPGASVKISCKASGYAFSSYWMNWVKQRPGKGLEWIGQIYPGDGDTNYNGKFKGKATLTADKSSSTAYMQLSSLTSEDSAVYFCARWYYGSYYAMDYWGQGTSVTVSS VL: DIQMTQTTSSLSASLGDRVTISCRASQDISNYLNWYQQKPDGTVKLLIYYTSRLHSGVPSRFSGSGSGTDYSLTISNLEQEDIATYFCQQGNTLPRTFGGGTKLEIKR	0.1
Ab330 (antibody, V domains shown, rodent hybridoma mAb) VH: EVQVVETGGGVVQPGKSLEITCATSGLTFSTAWMYWVRQSSDRRLEWIARIKDKSNKFASDYVESVRGRFTISRDDSRSSVYLQMNNLKEEDTATYYCTTSYGYAWGQGVMVTVSS VL: DIQMTQSPSSMSASLGDRVTITCQASQDIGNYLIWFQQKPGKSPRPLIYYATNLANGVPSRFSGSRSGSEYSLTITSLESEDMADYHCLQYKQHLTFGSGTKLEIER	3.13
Ab332 (antibody, V domains shown, rodent hybridoma mAb) VH: EVQLQQSGPELVKPGTSVKISCKASGYTFTDYYMNWMKQSHGKSLEWIGDINPNNGVTSYNQKFKGKATLTVDKSSSTAYMELRSLTSEDSAVYYCAREDYGSNYFDYWGQGTTLTVSS VL: DIVLTQSPASLAVSLGQRATISCKASQSVDYDGDSYMNWYQQKPGQPPKLLIYAASNLESGIPARLSGSGSGTDFTLNIHPVEEEDAATYYCQQSNEDPPTFGGGTKLEIRR	1.55
Ab328 (antibody, V domains shown, rodent hybridoma mAb) VH: QVQLQQSGAELAKPGASVKLSCKASGYTFTSYWMHWVKQRPGQGLEWIGYINPSSGYTKYNQKFKDKATLTADKSSSTAYMQLSSLTFEDSAVYYCARDYYGSSSWFAYWGQGTLVTVSA VL: DIVMTQSQKFMSTSVGDRVSVTCKASQNVGTNVAWYQQKPGHSPKALIYSASYRYSGVPDRFTGSGSGTDFTLTISNVQSEDLAEYFCQRYNSYPYMFTFGGGTKLEIKR	0.5
Ab327 (antibody, V domains shown, rodent hybridoma mAb) VH: DVKLVESGEGLVKPGGSLKLSCAASGFTFSSYAMSWVRQTPEKRLEWVTYISSGGDYIYYADTVKGRFTISRDNARNTLYLQMSSLKSEDTAMYYCTRERIWLRRFFDVWGTGTTVTVSS VL: DIVMTQSQKFMSTSVGDRVSITCKASQNVGTAVAWYQLKPGQSPKLLIYSASNRFTGVPDRFTGSGSGTDFTLTISNMQSEDLADYFCQQYSSYPLTFGSGTKLEIKR	0.4

Each binder was assayed against T2, purified ALK protein (BLitz, Table 20) (Homo sapiens (Human), UniProt Q9UM73 19-1038, limits assumed) (assay: BLI (BLitz), mAb on Protein A tip, purified ALK in solution).
T2 construct: also called purified ALK proteins
Procedure, shortened: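 Humanized anti-ALK mAbs loaded at 0.5 mg/mL on Protein A tips; after stable baseline, purified ALK protein at 70 μg/mL added. Kinetic traces fit to a single binding site model to give monovalent KD.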

T2 sequence (Q9UM73 19-1038 limits assumed): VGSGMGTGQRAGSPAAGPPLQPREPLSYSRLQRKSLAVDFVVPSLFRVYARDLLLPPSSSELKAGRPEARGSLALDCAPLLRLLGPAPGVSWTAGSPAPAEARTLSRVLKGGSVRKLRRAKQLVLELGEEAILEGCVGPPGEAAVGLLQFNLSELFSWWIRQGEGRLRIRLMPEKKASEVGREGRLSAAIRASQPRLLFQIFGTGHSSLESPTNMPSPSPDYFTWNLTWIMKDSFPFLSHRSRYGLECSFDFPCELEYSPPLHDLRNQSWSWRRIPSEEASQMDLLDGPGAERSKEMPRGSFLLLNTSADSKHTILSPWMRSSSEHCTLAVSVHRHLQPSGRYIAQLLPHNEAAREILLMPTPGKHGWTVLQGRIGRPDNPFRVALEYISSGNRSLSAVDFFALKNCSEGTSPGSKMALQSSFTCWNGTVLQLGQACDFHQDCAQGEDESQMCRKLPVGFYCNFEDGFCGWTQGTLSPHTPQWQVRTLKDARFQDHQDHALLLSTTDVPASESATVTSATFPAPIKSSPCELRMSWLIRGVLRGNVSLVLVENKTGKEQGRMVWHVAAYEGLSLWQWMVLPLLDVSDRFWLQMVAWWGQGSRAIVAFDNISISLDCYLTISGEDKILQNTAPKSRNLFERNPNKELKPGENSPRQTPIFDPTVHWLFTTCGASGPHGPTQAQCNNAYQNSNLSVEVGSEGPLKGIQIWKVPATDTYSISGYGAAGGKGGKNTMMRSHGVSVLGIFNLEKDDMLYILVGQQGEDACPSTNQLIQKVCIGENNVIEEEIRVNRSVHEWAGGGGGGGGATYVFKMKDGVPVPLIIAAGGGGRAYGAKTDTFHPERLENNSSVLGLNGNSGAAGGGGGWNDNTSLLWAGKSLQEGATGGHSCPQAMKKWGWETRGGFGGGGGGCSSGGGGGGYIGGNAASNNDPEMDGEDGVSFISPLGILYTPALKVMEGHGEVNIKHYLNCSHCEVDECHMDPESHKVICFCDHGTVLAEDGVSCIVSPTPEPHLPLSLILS

Kd [nM]	Binder
310	Ab438 (antibody, V domains shown, humanized) VH: EVQLVQSGAEVKKPGTSVKLSCKASGYTFTSYWMHWVRQARGQRLEWIGYIKPSSGYTKYAQKFQERVTLTADKSTSTAYMELSSLRSEDTAVYYCARDYYGSSSWFAYWGQGTLVTVSS VL: EIVMTQSQATMSTSVGERATLSCKASQNVGTNVAWYQQKPGQSPKALIYGASTRATGVPARFSGSGSGTDFTLTISSVEPEDFAVYYCQQYNSYPYMYTFGQGTKLEIK
110	Ab406 (antibody, V domains shown, humanized) VH: EVQLVQSGAEVKKPGASVKLSCKASGYTFTSYWMHWVRQAPGQGLEWIGYIKPSSGYTKYAQKLQGRVTLTADKSTSTAYMELRSLRSDDTAVYYCARDYYGSSSWFAYWGQGTLVTVSS VL: EIVMTQSQATMSTSVGERATLSCKASQNVGTNVAWYQQKPGQSPKALIYSASYRYSGVPARFSGSGSGTDFTLTISSVEPEDFAVYYCQQYNSYPYMYTFGQGTKLEIK
120	Ab436 (antibody, V domains shown, humanized) VH: EVQLVQSGPEVKKPGTSVKLSCKASGYTFTSYWMHWVRQARGQRLEWIGYIKPSSGYTKYNQKFKDRATLTADKSTSTAYMELSSLRSEDTAVYYCARDYYGSSSWFAYWGQGTLVTVSS VL: EIVMTQSQATMSTSVGERATLSCKASQNVGTNVAWYQQKPGQSPKALIYGASTRATGVPARFSGSGSGTDFTLTISSVEPEDFAVYYCQQYNSYPYMYTFGQGTKLEIK

More lines, now with the values behind:

Binder	Kd [nM]
Ab434 (antibody, V domains shown, humanized) VH: EVQLVQSGAEVKKPGSSVKLSCKASGYTFSSYWMHWVKQAPGQGLEWIGYIKPSSGYTKYAQKFQGRVTLTADKSTSTAYMELSSLRSEDTAVYYCARDYYGSSSWFAYWGQGTLVTVSS VL: EIVMTQSPATLSTSPGERATLSCRASQSVSSNLAWYQQKPGQAPRALIYSASYRYSGVPARFSGSGSGTDFTLTISSVEPEDFAVYYCQQYNSYPYMYTFGQGTKLEIK	329
Ab446 (antibody, V domains shown, humanized) VH: EVQLVQSGAEVKKPGSSVKLSCKASGYTFSSYWMHWVKQAPGQGLEWIGYIKPSSGYTKYAQKFQGRVTLTADKSTSTAYMELSSLRSEDTAVYYCARDYYGSSSWFAYWGQGTLVTVSS VL: EIVMTQSQATMSTSVGERATLSCKASQNVGTNVAWYQQKPGQSPKALIYGASTRATGVPARFSGSGSGTDFTLTISSVEPEDFAVYYCQQYNSYPYMYTFGQGTKLEIK	393
Ab442 (antibody, V domains shown, humanized) VH: EVQLVQSGAEVKKPGASVKLSCKASGYTFTSYWMHWVRQAPGQGLEWIGYIKPSSGYTKYAQKLQGRVTLTADKSTSTAYMELRSLRSDDTAVYYCARDYYGSSSWFAYWGQGTLVTVSS VL: EIVMTQSQATMSTSVGERATLSCKASQNVGTNVAWYQQKPGQSPKALIYGASTRATGVPARFSGSGSGTDFTLTISSVEPEDFAVYYCQQYNSYPYMYTFGQGTKLEIK	219
Ab435 (antibody, V domains shown, humanized) VH: QVQLVQSGAEVAKPGTSVKLSCKASGYTFTSYWMHWVKQAPGQGLEWIGYIKPSSGYTKYNQKFKDKVTLTADKSTSTAYMELSSLRSEDTAVYYCARDYYGSSSWFAYWGQGTLVTVSS VL: EIVMTQSQATMSTSVGERATLSCKASQNVGTNVAWYQQKPGQSPKALIYGASTRATGVPARFSGSGSGTDFTLTISSVEPEDFAVYYCQQYNSYPYMYTFGQGTKLEIK	317
Ab439 (antibody, V domains shown, humanized) VH: QVQLVQSGAEVAKPGASVKLSCKASGYTFTSYWMHWVKQAPGQGLEWIGYIKPSSGYTKYNQKFKDKATLTADKSTSTAYMELRSLRSDDTAVYYCARDYYGSSSWFAYWGQGTLVTVSS VL: EIVMTQSQATMSTSVGERATLSCKASQNVGTNVAWYQQKPGQSPKALIYGASTRATGVPARFSGSGSGTDFTLTISSVEPEDFAVYYCQQYNSYPYMYTFGQGTKLEIK	138
